Where a chain is given by its changes, count along the chain named.
T1: recombinant human full-length CD20 (human, UniProt P11836 1-297)
T1 chain: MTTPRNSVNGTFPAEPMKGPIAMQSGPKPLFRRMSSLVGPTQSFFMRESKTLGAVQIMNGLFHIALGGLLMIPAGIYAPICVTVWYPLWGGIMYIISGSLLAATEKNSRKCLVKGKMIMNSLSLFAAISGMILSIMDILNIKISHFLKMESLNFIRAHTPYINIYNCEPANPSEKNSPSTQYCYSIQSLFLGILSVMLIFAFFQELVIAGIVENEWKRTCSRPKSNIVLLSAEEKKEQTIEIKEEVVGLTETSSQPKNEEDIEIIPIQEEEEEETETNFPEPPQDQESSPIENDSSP

T2: recombinant human CD19 (human, UniProt P15391 20-291)
T2 chain: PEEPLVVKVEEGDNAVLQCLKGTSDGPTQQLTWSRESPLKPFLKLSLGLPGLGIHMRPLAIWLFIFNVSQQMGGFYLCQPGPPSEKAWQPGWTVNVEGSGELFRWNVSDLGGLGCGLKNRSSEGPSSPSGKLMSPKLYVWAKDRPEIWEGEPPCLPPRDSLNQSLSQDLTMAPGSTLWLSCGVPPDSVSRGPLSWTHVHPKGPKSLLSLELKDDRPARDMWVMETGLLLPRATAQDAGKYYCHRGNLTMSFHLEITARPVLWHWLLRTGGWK

T3: recombinant human Fc gamma RI (CD64) (human, UniProt P12314 16-288)
T3 chain: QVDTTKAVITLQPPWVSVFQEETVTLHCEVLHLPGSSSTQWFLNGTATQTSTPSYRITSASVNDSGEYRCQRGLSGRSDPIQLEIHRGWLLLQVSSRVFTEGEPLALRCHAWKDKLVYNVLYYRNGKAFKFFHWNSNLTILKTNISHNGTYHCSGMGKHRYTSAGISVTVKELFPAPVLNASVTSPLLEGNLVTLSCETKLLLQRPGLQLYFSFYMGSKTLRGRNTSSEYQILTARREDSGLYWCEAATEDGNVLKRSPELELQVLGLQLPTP

T4: recombinant human Fc gamma RIIa (CD32a) 131R (human, UniProt P12318 36-218)
T4 chain: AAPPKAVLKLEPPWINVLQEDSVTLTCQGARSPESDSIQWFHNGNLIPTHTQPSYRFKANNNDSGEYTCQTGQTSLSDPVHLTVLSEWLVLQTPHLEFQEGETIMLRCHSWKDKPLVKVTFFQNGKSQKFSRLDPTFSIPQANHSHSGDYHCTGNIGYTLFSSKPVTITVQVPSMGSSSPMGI

B1: Rituximab (antibody)
VH: not shown
VL: QIVLSQSPAILSASPGEKVTMTCRASSSVSYIHWFQQKPGSSPKPWIYATSNLASGVPVRFSGSGSGTSYSLTISRVEAEDAATYYCQQWTSNPPTFGGGTKLEIKRTVAAPSVFIFPPSDEQLKSGTASVVCLLNNFYPREAKVQWKVDNALQSGNSQESVTEQDSKDSTYSLSSTLTLSKADYEKHKVYACEVTHQGLSSPVTKSFNRGEC
B2: HB1905 (bispecific antibody)
light 1: DIQMTQTTSSLSASLGDRVTISCRASQDISKYLNWYQEKPDGTVKLLIYHTSRLHSGVPSRFSGSGSGTDYSLTISNLEQEDIATYFCQQGNTLPYTFGGGTKLEIKRTVAAPSVFIFPPSDEQLKSGTASVKCLLNNFYPREAKVQWKVDNALQSGNSQESVTEQDSKDSTYSLSSTLTLSKADYEKHKVYACEVTHQGLSSPVTKSFNRGEC
heavy 1: EVKLQESGPGLVAPSQSLSVTCTVSGVSLPDYGVSWIRKPPRKGLEWLGVIWGSETTYYNSALKSRLTIIKDNSKSQVFLKMSSLQTDDTAIYYCAKHYYYGGSYAMDYWGQGTSVTVSSASTKGPSVFPLAPSSKSTSGGTAALGCLVKDYFPEPVTVSWNSGALTSGVHTFPAVLQSSGLYSLESVVTVPSSSLGTQTYICNVNHKPSNTKVDKKVEPKSCTDWSPYADQSIKVRISLKSALGDKAYEWNDNEMYLFRSSVAYAMRQYFLKVKNQMILFGEEDVRVANLKPRISFNFFVTAPKNVSDIIPRTEVEKAIRMSRSRINDAFRLNDNSLEFLGIQPTLGPPNQPPVSTSTSPTRSMAPGAVHLPQPVSTRDKTHTCPPCPAPELLGGPSVFLFPPKPKDTLMISRTPEVTCVVVDVSHEDPEVKFNWYVDGVEVHNAKTKPREEQYNSTYRVVSVLTVLHQDWLNGKEYKCKVSNKALPAPIEKTISKAKGQPREPQVCTLPPSRDELTKNQVSLSCAVKGFYPSDIAVEWESNGQPENNYKTTPPVLDSDGSFFLVSKLTVDKSRWQQGNVFSCSVMHEALHNRFTQKSLSLSPG
light 2: QVQLQQPGAELVKPGASVKMSCKASGYTFTSYNMHWVKKTPGRGLEWIGAIYPGNGDTSYNQKFKGKATLTADKSSSTAYMQLSSLTSEDSAVYYCARSTYYGGDWYFNVWGAGTLVTVSSASVAAPSVFIFPPSDEQLKSGTASVECLLNNFYPREAKVQWKVDNALQSGNSQESVTEQDSKDSTYSLSSTLTLSKADYEKHKVYACEVTHQGLSSPVTKSFNRGEC
heavy 2: not shown
B3: HB1906 (bispecific antibody)
light 1: B2 light 1
heavy 1: B2 heavy 1
light 2: B2 light 2 with K39E
heavy 2: not shown

Key:
Assay in all cases: SPR
[1] = biological target: T1, recombinant human full-length CD20
recombinant human CD19 = biological target: T2, recombinant human CD19
[2] = biological target: T3, recombinant human Fc gamma RI (CD64)
[3] = biological target: T4, recombinant human Fc gamma RIIa (CD32a) …
[4] = biological target: recombinant human Fc gamma RIIIa (CD16a) 158V (human, UniProt P08637 17-208)
complement component C1q = complement component C1q (UniProt P02745 23-245; P02746 28-253; P02747 29-245)
complement component C1q, sequence (P02745 23-245, chain 1 of 3): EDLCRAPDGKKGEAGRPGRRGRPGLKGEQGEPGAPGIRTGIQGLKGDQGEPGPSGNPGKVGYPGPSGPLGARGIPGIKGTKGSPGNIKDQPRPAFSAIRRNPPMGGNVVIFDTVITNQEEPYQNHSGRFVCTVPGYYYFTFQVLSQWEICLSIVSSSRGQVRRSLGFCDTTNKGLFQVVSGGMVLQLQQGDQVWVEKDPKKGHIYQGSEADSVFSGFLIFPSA
complement component C1q, sequence (P02746 28-253, chain 2 of 3): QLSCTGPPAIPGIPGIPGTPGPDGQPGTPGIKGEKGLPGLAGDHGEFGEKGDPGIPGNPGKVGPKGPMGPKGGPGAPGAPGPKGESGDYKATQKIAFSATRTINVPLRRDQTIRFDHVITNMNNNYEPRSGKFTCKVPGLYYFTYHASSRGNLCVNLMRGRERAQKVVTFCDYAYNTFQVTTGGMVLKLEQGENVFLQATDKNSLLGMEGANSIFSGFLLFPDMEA
complement component C1q, sequence (P02747 29-245, chain 3 of 3): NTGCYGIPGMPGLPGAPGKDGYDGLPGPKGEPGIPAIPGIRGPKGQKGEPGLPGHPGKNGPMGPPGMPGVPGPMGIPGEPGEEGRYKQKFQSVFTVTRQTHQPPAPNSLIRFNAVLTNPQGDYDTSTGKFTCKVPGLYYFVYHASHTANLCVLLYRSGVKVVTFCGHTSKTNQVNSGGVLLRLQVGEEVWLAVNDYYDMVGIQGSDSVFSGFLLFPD

recombinant human Fc gamma RIIIa (CD16a) 158V, sequence (P08637 17-208 F176V): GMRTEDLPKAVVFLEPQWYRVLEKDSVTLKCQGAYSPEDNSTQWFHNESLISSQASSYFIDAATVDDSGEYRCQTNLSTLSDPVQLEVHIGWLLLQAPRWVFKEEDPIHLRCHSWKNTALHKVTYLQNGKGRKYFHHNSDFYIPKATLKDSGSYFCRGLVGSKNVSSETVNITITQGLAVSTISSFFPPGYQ

Binder	Kd [1] [nM]	Kd (recombinant human CD19) [nM]	Kd [2] [nM]	Kd [3] [nM]	Kd [4] [nM]	Kd (complement component C1q) [nM]
B1	0.596	–	–	–	–	–
B2	< 0.18	4.8	0.234	380	493	115
B3	0.423	3.8	0.259	329	488	115

— patent publication US20250084169A1 (published 2025)
